Reference: patent US20110014241A1

Target: H-2K^b class I-determinants expressed on LM fibroblasts transduced with pBR327H-2K^b (mouse) (UniProt P01901)
Experiment: flow cytometry staining of LM cells transduced with pBR327H-2K^b, control staining

Chain of UniProt P01901 (P01901 22-369): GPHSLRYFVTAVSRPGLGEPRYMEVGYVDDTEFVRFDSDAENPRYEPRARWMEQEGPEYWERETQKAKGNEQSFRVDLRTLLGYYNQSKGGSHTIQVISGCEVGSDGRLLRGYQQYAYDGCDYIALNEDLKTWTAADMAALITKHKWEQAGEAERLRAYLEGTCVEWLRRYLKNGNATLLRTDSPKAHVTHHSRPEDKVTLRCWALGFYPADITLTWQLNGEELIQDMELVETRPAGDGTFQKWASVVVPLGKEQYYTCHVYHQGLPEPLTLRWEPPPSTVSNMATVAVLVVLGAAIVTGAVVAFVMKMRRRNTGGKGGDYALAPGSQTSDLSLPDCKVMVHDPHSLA

## isotope control sera (antibody)
  mean fluorescence index (MFI): 0.3
